Data on one substance can be found in article PMC7677926.

The assay addresses L-ferritin-M6A (mouse L-ferritin with the Mms6 iron-binding segment M6A at its C-terminus behind a glycine spacer), with the N-terminal 6-His tag (mouse | Magnetospirillum magneticum AMB-1) (UniProt Q2W8R5). In words: SEC; HiLoad 26/60 Superdex 200; 20 mM Bis-Tris pH 5.8, 500 mM KCl, 10% glycerol; oligomer judged by elution volume. (In general: SEC sorts molecules by how far they enter the pores of the column.)

The term stoichiometry N denotes the number of molecules, sites or subunits per partner or assembly. In turn, “L-ferritin-M6A (mouse L-ferritin with the Mms6 iron-binding segment M6A at its C-terminus behind a glycine spacer), with the N-terminal 6-His tag (from UniProt Q2W8R5 116-127)” yielded a stoichiometry N of 24.
